The target in the assay is cynomolgus Lag3 on cells (HEK293F cells transiently transfected with cyno-LAG-3; activated cynomolgus PBMC/T cells) (cynomolgus). Briefly: flow cytometry on CD3/CD28-activated cynomolgus PBMC, antibody at 10 ug/ml. A general note: In flow cytometry, cells or beads pass a laser one at a time.

Regarding DP47 (human isotype) (antibody), the percentage of Lag3 positive cells is 9.19%.

Values taken from patent US20250313629A1.
